Assay results as given in patent US20190241648A1 (STATEN BIOTECHNOLOGY B V, published 2019).
Ends that are not written are not given here.

Tests used:
Assay in all cases: cyclic peptide substitution array
ApoC3 peptide F64G = biological target: T1, ApoC3 peptide F64G (human, thioether (positions not given here); not fully specified (bridges); also: cyclic (thioether), positions not given here)
T1 peptide: DKFSEGWDLDPEV
Source text: (§1) S62 and D68 of mature huApoC3 were also highly conserved; substitution of S62 by A or V, and substitution of D68 by E or P, caused decrease of spot intensities by ˜60% or higher. […] Amino acid F64 was completely variable.
(§2) Pre: staining of one of the ApoC3 peptide microarrays was done with the secondary antibody goat anti-human IgG (Fe) DyLight680 (1:5000) and control antibody mouse monoclonal anti-HA (12CA5) DyLight800 (1:2000) to investigate background interactions of the secondary antibody with the antigen-derived peptides that could interfere with the main assays. Subsequent incubation of other ApoC3 peptide microarrays with antibody samples was followed by staining with secondary and control antibodies as well as read-out at scanning intensities of 7/7 (red/green). The additional HA peptides framing the peptide arrays were stained as internal quality control to confirm the assay quality and the peptide microarray integrity.

ApoC3 peptide K60N = biological target: T2, ApoC3 peptide K60N (human, cyclic (thioether))
T2 peptide: DNFSEFWDLDPEV
Source text: as §1, §2

ApoC3 peptide F64D = biological target: T3, ApoC3 peptide F64D (human, cyclic (thioether))
T3 peptide: DKFSEDWDLDPEV
Source text: as §1, §2

ApoC3 peptide D66R = biological target: T4, ApoC3 peptide D66R (human, not fully specified; cyclic (thioether))
T4 peptide: DKFSEFWRLDPEV
Source text: as §1, §2

ApoC3 peptide F61H = biological target: T5, ApoC3 peptide F61H (human, cyclic (thioether))
T5 peptide: DKHSEFWDLDPEV
Source text: as §1, §2

ApoC3 peptide W65N = biological target: T6, ApoC3 peptide W65N (human, not fully specified; cyclic (thioether))
T6 peptide: DKFSEFNDLDPEV
Source text: as §1, §2

ApoC3 peptide D68L = biological target: T7, ApoC3 peptide D68L (human, cyclic (thioether))
T7 peptide: DKFSEFWDLLPEV
Source text: as §1, §2

ApoC3 peptide D59V = biological target: T8, ApoC3 peptide D59V (human, thioether (positions not given here); not fully specified (C-terminus, bridges); also: cyclised via thioether between a C-terminal Cys and a modified N-terminus, the Cys and the N-terminal …)
T8 peptide: VKFSEFWDLDPEV
Source text: as §1, §2

ApoC3 peptide E70W = biological target: T9, ApoC3 peptide E70W (human, cyclic (thioether))
T9 peptide: DKFSEFWDLDPWV
Source text: as §1, §2

ApoC3 peptide L67E = biological target: T10, ApoC3 peptide L67E (human, thioether (positions not given here); not fully specified (bridges); also: thioether between a C-terminal Cys side chain and a modified N-terminus, the Cys is not in the chain)
T10 peptide: DKFSEFWDEDPEV
Source text: as §1, §2

ApoC3 peptide E63C = biological target: T11, ApoC3 peptide E63C (human, not fully specified; cyclic (thioether))
T11 peptide: DKFSCFWDLDPEV
Source text: as §1, §2

ApoC3 peptide F64S = biological target: T12, ApoC3 peptide F64S (human, thioether (positions not given here); not fully specified (bridges); also: cyclic (thioether), positions not given here)
T12 peptide: DKFSESWDLDPEV
Source text: as §1, §2

ApoC3 peptide K60A = biological target: T13, ApoC3 peptide K60A (human, thioether (positions not given here); not fully specified (bridges); also: cyclic (thioether), positions not given here)
T13 peptide: DAFSEFWDLDPEV
Source text: as §1, §2

ApoC3 peptide V71N = biological target: T14, ApoC3 peptide V71N (human, thioether (positions not given here); also: cyclic (thioether), ring places not given here)
T14 peptide: DKFSEFWDLDPEN
Source text: as §1, §2

ApoC3 peptide L67K = biological target: T15, ApoC3 peptide L67K (human, thioether (positions not given here); not fully specified (bridges); also: thioether between a C-terminal Cys side chain and a modified N-terminus, the Cys is not in the chain)
T15 peptide: DKFSEFWDKDPEV
Source text: as §1, §2

ApoC3 peptide D59E = biological target: T16, ApoC3 peptide D59E (human, thioether (positions not given here); not fully specified (C-terminus, bridges))
T16 peptide: EKFSEFWDLDPEV
Source text: as §1, §2

ApoC3 peptide V71Y = biological target: T17, ApoC3 peptide V71Y (human, not fully specified; cyclic (thioether))
T17 peptide: DKFSEFWDLDPEY
Source text: as §1, §2

ApoC3 peptide P69W = biological target: T18, ApoC3 peptide P69W (human, not fully specified; cyclic (thioether))
T18 peptide: DKFSEFWDLDWEV
Source text: as §1, §2

ApoC3 peptide F64Q = biological target: T19, ApoC3 peptide F64Q (human, thioether (positions not given here); not fully specified (bridges); also: cyclic (thioether), positions not given here)
T19 peptide: DKFSEQWDLDPEV
Source text: as §1, §2

ApoC3 peptide S62L = biological target: T20, ApoC3 peptide S62L (human, thioether (positions not given here); also: cyclic (thioether), ring places not given here)
T20 peptide: DKFLEFWDLDPEV
Source text: as §1, §2

ApoC3 peptide D68Y = biological target: T21, ApoC3 peptide D68Y (human, cyclic (thioether))
T21 peptide: DKFSEFWDLYPEV
Source text: as §1, §2

ApoC3 peptide D59S = biological target: T22, ApoC3 peptide D59S (human, thioether (positions not given here); not fully specified (C-terminus, bridges); also: cyclised via thioether between a C-terminal Cys and a modified N-terminus, the Cys and the N-terminal …)
T22 peptide: SKFSEFWDLDPEV
Source text: as §1, §2

ApoC3 peptide F64H = biological target: T23, ApoC3 peptide F64H (human, thioether (positions not given here); not fully specified (bridges); also: cyclic (thioether), positions not given here)
T23 peptide: DKFSEHWDLDPEV
Source text: as §1, §2

ApoC3 peptide L67T = biological target: T24, ApoC3 peptide L67T (human, thioether (positions not given here); not fully specified (bridges); also: thioether between a C-terminal Cys side chain and a modified N-terminus, the Cys is not in the chain)
T24 peptide: DKFSEFWDTDPEV
Source text: as §1, §2

ApoC3 peptide F61N = biological target: T25, ApoC3 peptide F61N (human, cyclic (thioether))
T25 peptide: DKNSEFWDLDPEV
Source text: as §1, §2

ApoC3 peptide V71M = biological target: T26, ApoC3 peptide V71M (human, thioether (positions not given here); also: cyclic (thioether), ring places not given here)
T26 peptide: DKFSEFWDLDPEM
Source text: as §1, §2

ApoC3 peptide P69N = biological target: T27, ApoC3 peptide P69N (human, not fully specified; cyclic (thioether))
T27 peptide: DKFSEFWDLDNEV
Source text: as §1, §2

ApoC3 peptide W65V = biological target: T28, ApoC3 peptide W65V (human, cyclic (thioether))
T28 peptide: DKFSEFVDLDPEV
Source text: as §1, §2

% of binding to wild-type peptide (ApoC3 peptide F64G): 212% | % of binding to wild-type peptide (ApoC3 peptide K60N): 153% | % of binding to wild-type peptide (ApoC3 peptide F64D): 259% | % of binding to wild-type peptide (ApoC3 peptide D66R): 0.17% | % of binding to wild-type peptide (ApoC3 peptide F61H): 12.1% | % of binding to wild-type peptide (ApoC3 peptide W65N): 0% | % of binding to wild-type peptide (ApoC3 peptide D68L): 0% | % of binding to wild-type peptide (ApoC3 peptide D59V): 43.3% | % of binding to wild-type peptide (ApoC3 peptide E70W): 35.4% | % of binding to wild-type peptide (ApoC3 peptide L67E): 0.45% | % of binding to wild-type peptide (ApoC3 peptide E63C): 2.3% | % of binding to wild-type peptide (ApoC3 peptide F64S): 367% | % of binding to wild-type peptide (ApoC3 peptide K60A): 143% | % of binding to wild-type peptide (ApoC3 peptide V71N): 86.6% | % of binding to wild-type peptide (ApoC3 peptide L67K): 45.6% | % of binding to wild-type peptide (ApoC3 peptide D59E): 128% | % of binding to wild-type peptide (ApoC3 peptide V71Y): 87.4% | % of binding to wild-type peptide (ApoC3 peptide P69W): 5.36% | % of binding to wild-type peptide (ApoC3 peptide F64Q): 130% | % of binding to wild-type peptide (ApoC3 peptide S62L): 3.83% | % of binding to wild-type peptide (ApoC3 peptide D68Y): 0.16% | % of binding to wild-type peptide (ApoC3 peptide D59S): 57.7% | % of binding to wild-type peptide (ApoC3 peptide F64H): 84.5% | % of binding to wild-type peptide (ApoC3 peptide L67T): 168% | % of binding to wild-type peptide (ApoC3 peptide F61N): 25.9% | % of binding to wild-type peptide (ApoC3 peptide V71M): 138% | % of binding to wild-type peptide (ApoC3 peptide P69N): 19.4% | % of binding to wild-type peptide (ApoC3 peptide W65V): 17.9%
B1: Llama antibody 5E5 (antibody, V domains shown)
VH: QLQLVESGGGLVQPGGSLRLSCAASGFTFGTYSMRWVRQVPRKALEWVSSISTDGGGTAYRDSVKGRFTISRDNAKNTLYLQMNNLKPEDTAIYYCVIAGYSDWGQGTQVTVSS
VL: ATMLTQSPGSLSVVPGESASISCKTSQGLVHSDGKTYFYWFLQKPGQSPQQLIYQVSNRASGVPDRFTGSGSGTDFTLKISGVKAEDAGVYYCAQGTYYPHTFGSGTRLEIK
notes: detected with goat anti-human IgG (Fc); also called mAb 5E5
